Measurements as given in patent publication US20190292266A1.

Assays:
[1] = target: PD1 (immobilized target, Example 7); test: SPR, PD1 immobilized on CM5 chip, Langmuir 1:1
CD3 (Example 7) = test: SPR, biotinylated CD3 on SA chip, Langmuir 1:1
CD3 (Example 7), sequence (P22646 22-108): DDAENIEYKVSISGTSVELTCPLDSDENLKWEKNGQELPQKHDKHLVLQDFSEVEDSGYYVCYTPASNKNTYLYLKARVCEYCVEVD

Binder	Kd [1] [nM]	koff [1] [s⁻¹]	kon [1] [M⁻¹ s⁻¹]	Kd (CD3 (Example 7)) [nM]	koff (CD3 (Example 7)) [s⁻¹]	kon (CD3 (Example 7)) [M⁻¹ s⁻¹]
145-2C11 Fab CL 128187 (bispecific antibody, modifications not checked) heavy: EVQLVESGGGLVQPGKSLKLSCEASGFTFSGYGMHWVRQAPGRGLESVAYITSSSINIKYADAVKGRFTVSRDNAKNLLFLQMNILKSEDTAMYYCARFDWDKNYWGQGTMVTVSSAKTTAPSVYPLAPACDSTTSTTNTVTLGCLVKGYFPEPVTVIWNSGALTSGVHTFPSVLHSGLYSLSSSVTVPSSTWPSQTVTCNVAHPASSTTVDLKIE light: not shown	36.2	0.000282	7780	3.92	0.0015	381000
145-2C11 Fab NH 128187 (bispecific antibody, modifications not checked) heavy: not shown light: DIQMTQSPSSLPASLGDRVTINCQASQDISNYLNWYQQKPGKAPKLLIYYTNKLADGVPSRFSGSGSGRDSSFTISSLESEDIGSYYCQQYYNYPWTFGPGTKLEIKRADAKPTVSIFPPSSEQLGTGSATLVCFVNNFYPKDINVKWKVDGSEKRDGVLQSVTDQDSKDSTYSLSSTLSLTKADYERHNLYTCEVTHKTSTAAIVKTLNRNEC	4.61	0.000229	49600	10.8	0.00306	284000
145-2C11 Fab CH 128187 (bispecific antibody, modifications not checked) heavy: not shown light: DIQMTQSPSSLPASLGDRVTINCQASQDISNYLNWYQQKPGKAPKLLIYYTNKLADGVPSRFSGSGSGRDSSFTISSLESEDIGSYYCQQYYNYPWTFGPGTKLEIKRADAKPTVSIFPPSSEQLGTGSATLVCFVNNFYPKDINVKWKVDGSEKRDGVLQSVTDQDSKDSTYSLSSTLSLTKADYERHNLYTCEVTHKTSTAAIVKTLNRNEC	686	9.45e-05	138	2.14	0.00126	587000
